Reference: publication PMC5656594, “Probing Resistance Mutations in Retroviral Integrases by Direct Measurement of Dolutegravir Fluorescence”

B1: Fl-DNA#8 (dsDNA)
DNA 1: GGAATCTAGCGGCGCATCAAT
DNA 2: ATTGATGCGCCGCTAGATTCC
B2: Fl-DNA#9 (dsDNA)
DNA 1: GGAATCTAGCGGCGCATAGGT
DNA 2: ACCTATGCGCCGCTAGATTCC
B3: Fl-DNA#13 (processed LTR end) (dsDNA)
DNA 1: TATACAAAATTCCATGACA
DNA 2: ATTGTCATGGAATTTTGTATA
B4: Fl-PFVCAAT (Fl-DNA#1) (dsDNA)
DNA 1: TATACAAAATTCCATGACAAT
DNA 2: ATTGTCATGGAATTTTGTATA

Biological target: PFV integrase wt (INPFV) (prototype foamy virus, UniProt P14350 752-1143)
Assay: fluorescence anisotropy; 1 mM Mg2+; stoichiometric IN + DNA; 20 mM Tris pH 7.2, 50 mM NaCl, 1 mM DTT, 10% DMSO, 1 mM (or 10 mM) Mg2+, 25 °C
Conditions: protein: recombinant, tags: His-tag, chain copies: 4

| Binder | binding result (label: fluorescein, blunt) | other results |
| --- | --- | --- |
| B1 | binds | – |
| B2 | binds | – |
| B3 | – | binding result (label: fluorescein, 5' overhang 2 nt on non-transferred strand): binds |
| B4 | – | binding result (label: 5'-fluorescein on reactive strand, blunt): binds |
